# Key:
# Assay in all cases: IEDB peptide-MHC binding, purified MHC/competitive/radioactivity; ≥ and ≤ were set here for values at or beyond the usual limits of such assays
# Settings in all cases: source organism: Homo sapiens
# HLA-A*33:01 = molecular target: HLA-A*33:01
# HLA-A*11:01 = molecular target: HLA-A*11:01
# HLA-A*03:01 = molecular target: HLA-A*03:01
# HLA-A*31:01 = molecular target: HLA-A*31:01
# HLA-A*30:01 = molecular target: HLA-A*30:01
# HLA-A*68:01 = molecular target: HLA-A*68:01
Sequence,IC50 (HLA-A*33:01) [µM],IC50 (HLA-A*11:01) [µM],IC50 (HLA-A*03:01) [µM],IC50 (HLA-A*31:01) [µM],IC50 (HLA-A*30:01) [µM],IC50 (HLA-A*68:01) [µM]
EVYEGVWKK,0.06,0.063,1.07,≥ 70,≥ 70,0.01
KLGGGQYGE,63.6,2.28,2.28,9.87,10.1,4.21
